For data set [1], the target named is T1, CmWC-3 (zinc-finger domain-containing protein, GATA-type) (Cordyceps militaris, UniProt G3J672 1-188).
T1 sequence: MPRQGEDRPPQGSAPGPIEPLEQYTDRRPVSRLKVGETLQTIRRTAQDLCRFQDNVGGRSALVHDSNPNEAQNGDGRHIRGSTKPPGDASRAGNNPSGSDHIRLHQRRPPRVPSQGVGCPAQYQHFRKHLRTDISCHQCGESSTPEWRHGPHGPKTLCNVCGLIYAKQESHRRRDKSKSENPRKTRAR
The data set can be described thus: EMSA; LightShift EMSA Kit (Thermo 20148); cold competitor 50x; proteins recovered in 1x PBS; binding buffer, salt, pH and temperature not stated. Conditions: protein: recombinant; tags: GST (pGEX-6P-1); label: biotin on both strands (5'); blunt.

The target in data set [2] is T2, CmWC-1 (white collar-1) (Cordyceps militaris, UniProt G3J3J5 1-963).
T2 sequence: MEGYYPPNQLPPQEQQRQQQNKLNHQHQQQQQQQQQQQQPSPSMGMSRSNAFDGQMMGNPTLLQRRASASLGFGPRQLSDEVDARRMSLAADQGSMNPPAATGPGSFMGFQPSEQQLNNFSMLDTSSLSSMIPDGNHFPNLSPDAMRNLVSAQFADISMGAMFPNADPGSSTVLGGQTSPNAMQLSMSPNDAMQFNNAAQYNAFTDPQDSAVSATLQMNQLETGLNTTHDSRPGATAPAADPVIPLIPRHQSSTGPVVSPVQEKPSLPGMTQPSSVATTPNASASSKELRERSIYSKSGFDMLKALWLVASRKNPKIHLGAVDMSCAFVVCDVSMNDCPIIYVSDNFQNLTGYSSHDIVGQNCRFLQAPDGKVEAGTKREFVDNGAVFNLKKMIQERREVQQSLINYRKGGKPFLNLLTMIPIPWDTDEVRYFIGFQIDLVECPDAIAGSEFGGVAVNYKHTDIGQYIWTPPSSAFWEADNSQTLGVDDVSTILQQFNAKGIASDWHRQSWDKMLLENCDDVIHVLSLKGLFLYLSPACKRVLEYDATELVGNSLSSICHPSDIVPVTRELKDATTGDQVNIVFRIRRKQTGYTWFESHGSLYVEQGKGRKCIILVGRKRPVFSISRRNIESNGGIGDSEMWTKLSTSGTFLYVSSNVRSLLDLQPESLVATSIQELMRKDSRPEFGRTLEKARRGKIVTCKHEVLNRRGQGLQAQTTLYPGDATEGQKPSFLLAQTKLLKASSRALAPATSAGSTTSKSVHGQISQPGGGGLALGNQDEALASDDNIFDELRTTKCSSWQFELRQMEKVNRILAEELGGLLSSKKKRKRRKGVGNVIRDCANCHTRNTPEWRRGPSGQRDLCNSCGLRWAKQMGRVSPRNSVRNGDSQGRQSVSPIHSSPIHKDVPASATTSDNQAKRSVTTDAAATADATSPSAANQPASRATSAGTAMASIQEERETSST
Described as above. The settings on record: protein: recombinant; tags: His (pCOLD I); label: biotin on both strands (5'); blunt.

B1: CmPKS promoter P1 probe (dsDNA)
DNA 1: TCATATGATTGTTGATAAATATGTTTTCCCAGTGA
DNA 2: TCACTGGGAAAACATATTTATCAACAATCATATGA
In the case of B1, the binding result is listed as “binds” in data set [1] and “no binding” in data set [2].

B2: CmPKS promoter P2 probe (dsDNA)
DNA 1: CGCAGCTGAGGGTATTGATAGCCGTGATCGAACCC
DNA 2: GGGTTCGATCACGGCTATCAATACCCTCAGCTGCG
With B2, the binding result is listed as “binds” in data set [1] and “no binding” in data set [2].

These data come from PMC10126257, “Genome resequencing and transcriptome analysis reveal the molecular mechanism of albinism in Cordyceps militaris”.
